Assay results taken from article PMC9168451.

Assays:
[1] = molecular target: Acinetobacter baumannii bifunctional mannitol-1-phosphate dehydrogenase/phosphatase (AbMtlD), wild type (Acinetobacter baumannii); assay: SEC-MALS
[2] = molecular target: AbMtlD H434C_Y469C double-cysteine variant (Acinetobacter baumannii)
[3] = molecular target: AbMtlD Y427C_A466C double-cysteine variant (Acinetobacter baumannii)

With “Acinetobacter baumannii bifunctional mannitol-1-phosphate dehydrogenase/phosphatase (AbMtlD), wild type (from UniProt A0ABX6CFK3 1-715) (enzyme)” the stoichiometry N [1] was 2.
“AbMtlD H434C_Y469C double-cysteine variant (from UniProt A0ABX6CFK3 1-715) (enzyme)” was tested, and the F6P reduction activity, kcat/Km for F6P (wild type: 2.388) [2] was 149000 M⁻¹ s⁻¹.
With “AbMtlD Y427C_A466C double-cysteine variant (from UniProt A0ABX6CFK3 1-715) (enzyme)” the F6P reduction activity, kcat/Km for F6P (wild type: 2.388) [3] was 139000 M⁻¹ s⁻¹.
